The text below walks through data of PMC11381335, “Unraveling the structure and function of a novel SegC protein interacting with the SegAB chromosome segregation complex in Archaea” (Nucleic Acids Research, 2024).

The data set concerns the target T1, SegC1-155 (UniProt Q981B4 1-155, del156-165).
T1 sequence: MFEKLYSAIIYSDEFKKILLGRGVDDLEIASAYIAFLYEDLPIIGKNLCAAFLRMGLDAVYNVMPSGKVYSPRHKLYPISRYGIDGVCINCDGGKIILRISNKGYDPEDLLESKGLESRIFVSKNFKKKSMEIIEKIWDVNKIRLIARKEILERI
Briefly: fluorescence polarization; FP: 20 mM Tris-HCl pH 7.5, 100 mM NaCl, 2 mM MgCl2, 5 nM Cy3-DNA, room temperature; EMSA: same buffer, 10 nM Cy3-DNA, 37 C 30 min, 4-12% TBE gel. To be noted: protein: recombinant; tags: C-terminal His6; label: 5' Cy3; 20 bp paired with 3' overhang 1 nt at each end (from printed strands). Background: In fluorescence polarisation assays a small probe gives low polarisation when free and higher when bound to something large.

B1: 21-bp site 1 (S1) dsDNA (dsDNA)
DNA 1: ACGTAGAAGAGTCTAGACTGA
DNA 2: CAGTCTAGACTCTTCTACGTA
Turning to B1, the binding result is reported as “no binding”.
